# According to the DeepSol protein solubility set:
# Test: soluble on expression in E. coli; label from the status in PepcDB or PDB records
row,Sequence,soluble on expression in E. coli
1,MLLQANRGLGLSAHIIDHCNLILKFPEGTNSTWYNAQFKVFEALEFKYNVCEAVLLWEQYRNMTTVLTREYLDVRPDGWLDYAAMRIAQLGADKCYNRTLCEEHLNVILPAKPPFHPRQFHKCAVVGNSGDLLKTEFGEEIDSHDAVFRDNEAPVNEKYAKYVGVKRDFRLVVRGAARNMIKILNGSDNEVLIIKSVTHRDFNEMIKRIPNPVYLFQGIVLRRGAKGTGMKSIELALSMCDIVDIYGFTVDPGYTEWTRYFSTPRKGHNPLQGRAYYQLLECLGVQITC,not soluble
2,MLLQVHRLLFEKFYPWAGRDRLELVPHLSVWKGPKGAPRRTFFESPAMIERAVDYALSLASKKQGFMQKPGEVMGLLCFAHPFLDGNGRSILLFYMELSYRAGFAIDWASTRKDDYLQALDDEIHNPGKGHL,soluble
3,MLLTCRFTAATSRLSACTRSFSIDFSHEKPAPHQLEHVTTRLTETVPLMFRRRMDYTFYRKDVVCDDQIFSVEKRGIEQLMSHFGMIGTLGQVFLPHVEMEMLSVAPVIDEGTVRCRWRVKYVSFTRIIMNPRLLRFDYRMQNLSWFDGYSVLTVDGNGEVYKVTLQKMQQDEQKSLLTSTTEKLKEKLAPSAANN,not soluble
4,MLLVMRAKQGKKTPKRKSQGVGNTQGQTPGSNDSDWVDQIGQSVSDGTQPDWSWNESAETASAAVSAQEVDPLTEYQVYKQFGYQGKAAESLAAYLDGIPDGEAKPENLIRELLDINLEVGDVDVLADNLQKYGKLILSELLAKYIEQALQRDSNHLRIRVLAEEGLGWGTQEIEKRAEGGSATAASASPPPDAGGKAYEAEEIKRIPIVRGKKDVSGISQEEIGAIAGLVRADQGAKILKDKVSYETASKQYDRAIQTSEKPANLIIDALKLDYQHADIDRFAGHLWKLYQTLGNYGRQVKERMLGWGYSLGYHEVFDDLEKGPNDRQIKDIGMGHGYLPKNIQKFKSQHRDLVLQDSSLINTGSSPADDAVKEVESLLMYGQIEAAMDVLEQAVLKYPDESQLYITLIDIYERTEDWDRLGQFLRVLRERADRLPEEVVMLMSRLLQRMNQNIKKIKRYGK,not soluble
5,MLLYMRFTENFERAKKEALMSLEIALRKGEVDEDIIPLLKKINSIENYFTTSSCSGRISVMEMPHFGDKVNAKWLGKWHREVSLYEVLEAIKKHRSGQLWFLVRSPILHVGAKTLEDAVKLVNLAVSCGFKYSNIKSISNKKLIVEIRSTERMDVLLGENGEIFVGEEYLNKIVEIANDQMRRFKEKLKRLESKINALNR,soluble
6,MLNKLMWLTGKAQEDWIEKILHLRQKIWPDYQRIKNDTLFKLYSHYPLYQWLSHYNGEVVAVINSLPVALDQSLDNLPQEGLNWVLSHLESTTPLTQSNYLAAVSVTVNPAYQRLGLSKLLLNRLKASAQEAQYKALIVPARPSQKENY,not soluble
7,MLNVEPSFAEELRSSGVSLSATYLGSVPVVESINVMVSEMRVQVVSECIQHVAATVGVTAAREINPVVSRVIGEVKKENFPVDINISSKMIKIIKQSRLIQRHPFSFFSFGAQGQKGTDTELMFGYIAKNKDGTDRRCHVVFIEDVHKLIDVLTTAINVNTFDAQANASTSNDGFTVPAPPMRHRSSLHRQSFVSNCRAPTVTEDVVGKVWYHGNLSREDAQALLKTEGDFLVRQSDHTPGKYVLSGRTAENEHKHLILLDNHNRVRTRDRTFSNISELIDYHVNNGMAVRSEGRDRETSLNLIRPVPCPGSDDIE,soluble
